T1: FcγRIIa H (human, UniProt P12318 34-217)
T1 construct: extracellular domain; also called FcgRIIa H type; 2aH; not shown: His tag at the C terminus
T1 sequence (looked up): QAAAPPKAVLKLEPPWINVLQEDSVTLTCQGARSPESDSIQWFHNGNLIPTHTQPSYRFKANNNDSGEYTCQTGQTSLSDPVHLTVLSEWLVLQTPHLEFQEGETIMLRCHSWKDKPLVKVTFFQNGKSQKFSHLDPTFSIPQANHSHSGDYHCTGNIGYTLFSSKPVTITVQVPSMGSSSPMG

B1: GpH7-A5/GpH7-B3 variant I332_15Y/GpL16-k0 (antibody, human IgG1, kappa)
heavy 1: not shown
heavy 2: not shown
light: DIVMTQSPLSLPVTPGEPASISCQASESLVHSNRNTYLHWYLQKPGQSPQLLIYKVSNRFSGVPDRFSGSGSGTDFTLKISRVEAEDVGVYYCSQNTHVPPTFGQGTKVEIERTVAAPSVFIFPPSDEQLKSGTASVVCLLNNFYPREAKVQWKVDNALQSGNSQESVTEQDSKDSTYSLSSTLTLSKADYEKHKVYACEVTHQGLSSPVTKSFNRGEC
notes: also called He Ab I332_15Y
B2: GpH7-A5/GpH7-B3 variant I332_19Q/GpL16-k0 (antibody, human IgG1, kappa)
heavy 1: not shown
heavy 2: not shown
light: DIVMTQSPLSLPVTPGEPASISCQASESLVHSNRNTYLHWYLQKPGQSPQLLIYKVSNRFSGVPDRFSGSGSGTDFTLKISRVEAEDVGVYYCSQNTHVPPTFGQGTKVEIERTVAAPSVFIFPPSDEQLKSGTASVVCLLNNFYPREAKVQWKVDNALQSGNSQESVTEQDSKDSTYSLSSTLTLSKADYEKHKVYACEVTHQGLSSPVTKSFNRGEC
notes: also called He Ab I332_19Q
B3: GpH7-A5/GpH7-B3 variant I332_18N/GpL16-k0 (antibody, human IgG1, kappa)
heavy 1: not shown
heavy 2: not shown
light: DIVMTQSPLSLPVTPGEPASISCQASESLVHSNRNTYLHWYLQKPGQSPQLLIYKVSNRFSGVPDRFSGSGSGTDFTLKISRVEAEDVGVYYCSQNTHVPPTFGQGTKVEIERTVAAPSVFIFPPSDEQLKSGTASVVCLLNNFYPREAKVQWKVDNALQSGNSQESVTEQDSKDSTYSLSSTLTLSKADYEKHKVYACEVTHQGLSSPVTKSFNRGEC
notes: also called He Ab I332_18N
B4: GpH7-A5/GpH7-B3 variant I332_16H/GpL16-k0 (antibody, human IgG1, kappa)
heavy 1: not shown
heavy 2: not shown
light: DIVMTQSPLSLPVTPGEPASISCQASESLVHSNRNTYLHWYLQKPGQSPQLLIYKVSNRFSGVPDRFSGSGSGTDFTLKISRVEAEDVGVYYCSQNTHVPPTFGQGTKVEIERTVAAPSVFIFPPSDEQLKSGTASVVCLLNNFYPREAKVQWKVDNALQSGNSQESVTEQDSKDSTYSLSSTLTLSKADYEKHKVYACEVTHQGLSSPVTKSFNRGEC
notes: also called He Ab I332_16H
B5: GpH7-A5/GpH7-B3 variant K326_09D/GpL16-k0 (antibody, human IgG1, kappa)
heavy 1: not shown
heavy 2: not shown
light: DIVMTQSPLSLPVTPGEPASISCQASESLVHSNRNTYLHWYLQKPGQSPQLLIYKVSNRFSGVPDRFSGSGSGTDFTLKISRVEAEDVGVYYCSQNTHVPPTFGQGTKVEIERTVAAPSVFIFPPSDEQLKSGTASVVCLLNNFYPREAKVQWKVDNALQSGNSQESVTEQDSKDSTYSLSSTLTLSKADYEKHKVYACEVTHQGLSSPVTKSFNRGEC
notes: also called He Ab K326_09D
B6: GpH7-A5/GpH7-B3 variant K326_06M/GpL16-k0 (antibody, human IgG1, kappa)
heavy 1: not shown
heavy 2: not shown
light: DIVMTQSPLSLPVTPGEPASISCQASESLVHSNRNTYLHWYLQKPGQSPQLLIYKVSNRFSGVPDRFSGSGSGTDFTLKISRVEAEDVGVYYCSQNTHVPPTFGQGTKVEIERTVAAPSVFIFPPSDEQLKSGTASVVCLLNNFYPREAKVQWKVDNALQSGNSQESVTEQDSKDSTYSLSSTLTLSKADYEKHKVYACEVTHQGLSSPVTKSFNRGEC
notes: also called He Ab K326_06M
B7: GpH7-A5/GpH7-B3 variant I336_06M/GpL16-k0 (antibody, human IgG1, kappa)
heavy 1: not shown
heavy 2: not shown
light: DIVMTQSPLSLPVTPGEPASISCQASESLVHSNRNTYLHWYLQKPGQSPQLLIYKVSNRFSGVPDRFSGSGSGTDFTLKISRVEAEDVGVYYCSQNTHVPPTFGQGTKVEIERTVAAPSVFIFPPSDEQLKSGTASVVCLLNNFYPREAKVQWKVDNALQSGNSQESVTEQDSKDSTYSLSSTLTLSKADYEKHKVYACEVTHQGLSSPVTKSFNRGEC
notes: also called He Ab I336_06M
B8: GpH7-A5/GpH7-B3 variant I336_08L/GpL16-k0 (antibody, human IgG1, kappa)
heavy 1: not shown
heavy 2: not shown
light: DIVMTQSPLSLPVTPGEPASISCQASESLVHSNRNTYLHWYLQKPGQSPQLLIYKVSNRFSGVPDRFSGSGSGTDFTLKISRVEAEDVGVYYCSQNTHVPPTFGQGTKVEIERTVAAPSVFIFPPSDEQLKSGTASVVCLLNNFYPREAKVQWKVDNALQSGNSQESVTEQDSKDSTYSLSSTLTLSKADYEKHKVYACEVTHQGLSSPVTKSFNRGEC
notes: also called He Ab I336_08L

In the experiment the target is T1, FcγRIIa H. Put plainly: SPR Biacore, relative binding. In general terms: SPR reads the build-up and loss of mass on a sensor chip optically.
Regarding B1, the He/Con_2aH was 115 % of GpH7-A5/GpH7-B3/GpL16-k0 (=100). Under B2 stands 108 % of GpH7-A5/GpH7-B3/GpL16-k0 (=100); under B3, 110 % of GpH7-A5/GpH7-B3/GpL16-k0 (=100); under B4, 109 % of GpH7-A5/GpH7-B3/GpL16-k0 (=100).

Take B5: the He/Con_2aH is 110 % of GpH7-A5/GpH7-B3/GpL16-k0 (=100). Under B6 stands 103 % of GpH7-A5/GpH7-B3/GpL16-k0 (=100).

As for B7, the He/Con_2aH was 106 % of GpH7-A5/GpH7-B3/GpL16-k0 (=100).

With B8, the He/Con_2aH was 106 % of GpH7-A5/GpH7-B3/GpL16-k0 (=100).
